Experiments:
hFcRn = molecular target: T1, hFcRn (Homo sapiens, UniProt P55899); assay: FcRn affinity by biolayer interferometry (Octet RED96e), pH 6.0; conditions: pH 6.0, 2:1 binding model
T1 construct: purchased Sino Biological CT071-H27H-B
Method: FcRn affinity of VHH-Fc can generally be used to predict the half-life of antibody serum clearance. (See, e.g., Datta-Mannan A et al. “FcRn affinity-pharmacokinetic relationship of five human IgG4 antibodies engineered for improved in vitro FcRn binding properties in cynomolgus monkeys.” Drug Metab Dispos. 2012 August; 40(8):1545-55). Briefly, 10 nM of biotinylated hFcRn (Sino Biological, Cat #: CT071-H27H-B) was captured with the SA biosensor using Octet RED96e (Fortebio). The hFcRN coated biosensor was dipped into the sample solutions in sodium phosphate buffer (100 mM Na2HPO4, 150 mM NaCl w/ 0.05% Tween-20, pH 6.0) with serial concentrations of tested antibodies and the association measured. The dissociation was measured by dipping the biosensors into sodium phosphate buffer without antibody. The KD values were determined using Octet Data Analysis HT 11.0 software. 2:1 (Heterogeneous Ligand) binding model was used in analysis. […] Changes in FcRn affinity were consistent across targets. Constructs with Fc Effector mutation only have no impact on FcRn affinity.

SHP-77 = assay: ABC (Antibody Binding Capacity) assay, receptor density; type: cell-based
Method: (§1) In order to test efficacy of the immunoconjugate binding with respect to target density receptor density was measured on target positive cell lines. Target density was measured using the ABC (Antibody Binding Capacity) assay. Cancer cells expressing the target of interest, as well as a negative control cell line, were harvested with cell dissociation buffer, seeded at about 5×10^4 cells per well into 96-well V bottom plate (Sarstedt 82.1583.001). Cells were tested for receptor expression using QuantiBRITE PE beads (BD Cat #340495) and a PE-conjugated anti-hu IgG (Biolegend clone HP6017) following the manufacturers' instructions. In brief, VHH-Fc and isotype control antibodies were prepared at suitable saturating concentrations based on previous experiments. Antibody sample dilutions were incubated with the panel of cell lines on ice for 1 hour. Cells were washed twice with 1% FBS in 1×PBS (FACS buffer), centrifuged at 400 G for 4 min. Cells were then incubated with 4 μg/mL mouse PE-conjugated anti-hu and DAPI (1:1000) for 30 minutes on ice. Cells were washed twice with FACS buffer, centrifuged at 400 G for 4 minutes and resuspended in FACS buffer. Fluorescence intensity on the PE channel was measured on the iQue Screener platform, and data were processed with ForeCyt software. The amount of PE signal generated from the different primary antibody was then fit to a standard curve based off of known PE molecules/Quantibrite bead samples to determine the number of antibody-binding sites per cell. Relative antibody binding sites correlate to the number of antigens or receptors on cell surface.

BT474 = assay: as above; type: cell-based
Method: as §1

HCT-116 = assay: as above; type: cell-based
Method: as §1

HEK-DLL3 = assay: as above; type: cell-based
Method: as §1

HEK293-6E = assay: as above; type: cell-based
Method: as §1

human insulin = molecular target: T2, human insulin (Homo sapiens, UniProt P01308); assay: Polyreactivity ELISA; type: binding; conditions: 10 μg/mL VHH-Fc; signal normalized to non-coated well
T2 construct: 5 μg/mL of human insulin (SigmaAlrich, Cat #: I9278); purchased SigmaAlrich I9278
T2 sequence (P01308 25-54 limits assumed): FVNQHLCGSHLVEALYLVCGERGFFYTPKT
T2 sequence (P01308 90-110 limits assumed): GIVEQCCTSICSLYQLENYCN
Method: Polyreactivity of VHH-Fcs against negatively charged biomolecules was determined by ELISA (As in Avery et al., “Establishing in vitro in vivo correlations to screen monoclonal antibodies for physicochemical properties related to favorable human pharmacokinetics.” MAbs. 2018 February/March; 10(2):244-255). Briefly, ELISA plate was coated with 5 μg/mL of human insulin (SigmaAlrich, Cat #: I9278) and 10 μg/mL of double stranded DNA (SigmaAlrich, Cat #: D1626-250MG) overnight. The plate was blocked with ELISA buffer (PBS, 1 mM EDTA, 0.05% Tween-20, pH 7.4). 10 μg/mL of test VHH-Fcs was loaded onto the plates in quadruplicates and incubated for 2 hours. Goat anti-human Fc(0.01 ug/ml) conjugated with HRP was then added and the plate incubated for 1 hour. The signal was developed with TMB and A450 absorbance was measured with Synergy Neo2 plate reader. The signal was normalized with the signal of non-coated well for each antibody tested.

[1] = Pharmacokinetics of VHH-Fc variants in Tg32 (humanized FcRn) mice; type: in vivo; conditions: IV 3 mg/kg, HER2 VHH-Fc study (Table 6)
Method: Twenty eight (28) 8 week old male B6. Cg-Fcgrt^tm1Der Tg(FCGRT)32Dcr/DcrJ (Tg32 hom, JAX stock #014565) mice were distributed into 7 groups with 4 mice per group as outlined in the table. […] (See, e.g., Avery L B et al. “Utility of a human FcRn transgenic mouse model in drug discovery for early assessment and prediction of human pharmacokinetics of monoclonal antibodies.” MAbs. 2016 August-September; 8(6):1064-78). On Day 0, body weights were measured and test articles were IV administered to all mice at 3 mg/kg and 5 mL/kg. 25 μL blood samples were collected from each mouse at time intervals. The blood samples were collected into 1 μL K3EDTA, processed to plasma, diluted 1/10 in 50% glycerol in PBS, transferred into specialized 96 well storage plates, and stored at −20° C. All plasma samples were assessed via a hIgG ELISA chosen for its high sensitivity for all seven test articles.

T1 sequence (P55899 24-297 limits assumed): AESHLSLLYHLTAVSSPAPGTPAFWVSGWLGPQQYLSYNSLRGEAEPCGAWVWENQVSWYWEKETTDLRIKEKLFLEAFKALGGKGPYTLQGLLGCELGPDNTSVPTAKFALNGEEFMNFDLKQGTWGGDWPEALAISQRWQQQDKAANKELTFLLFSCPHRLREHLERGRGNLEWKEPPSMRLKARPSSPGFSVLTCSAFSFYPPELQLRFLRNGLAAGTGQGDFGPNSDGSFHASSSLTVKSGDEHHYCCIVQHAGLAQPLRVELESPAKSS
T1 sequence (P61769 21-119 partner): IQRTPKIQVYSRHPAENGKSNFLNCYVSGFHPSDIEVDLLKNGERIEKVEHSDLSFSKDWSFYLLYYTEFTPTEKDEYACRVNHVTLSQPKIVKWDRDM

H101: anti-HER2 VHH-Fc (2RS15d VHH, human IgG1 Fc); FcRn wt, Fc effector wt [Compound H101]
Kd (hFcRn): 3.7 nM
Estimated number of epitopes/cell (SHP-77): 572 epitopes/cell
Estimated number of epitopes/cell (BT474): 401604 epitopes/cell
Estimated number of epitopes/cell (HCT-116): 2604 epitopes/cell
Estimated number of epitopes/cell (HEK-DLL3): 1490 epitopes/cell
Estimated number of epitopes/cell (HEK293-6E): 1935 epitopes/cell
Polyreactivity Assay Score, Insulin (human insulin): 1.176
Clearance [1]: 28.7 mL/day
Cmax [1]: 57.0 µg/mL
Terminal Half-Life [1]: 166 h

— patent publication US20260183437A1, “VHH ANTIBODY CONJUGATES WITH HETEROARYL CHELATORS” (ABDERA THERAPEUTICS INC., priority 2022, published 2026)
